The target of the test is Scribble PDZ1 (His-tagged, aa 719-829) (human, UniProt Q14160 719-829). The test can be described thus: ITC. For orientation: In ITC the heat of successive injections is recorded.
Sequence of Scribble PDZ1 (His-tagged, aa 719-829) (Q14160 719-829): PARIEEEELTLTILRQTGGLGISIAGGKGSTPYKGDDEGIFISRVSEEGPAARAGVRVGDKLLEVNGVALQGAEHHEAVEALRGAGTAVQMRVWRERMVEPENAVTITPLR

B1: ARVSKETPL (MAPK12 peptide, unphosphorylated) (peptide)
peptide: ARVSKETPL
Take B1: the Kd (in general, the concentration at which binding is half-saturated) was determined as 1600 nM.

These data come from publication PMC6100724 (2018).
